From patent US20060078953

Tested on: histone H4 methylated at arginine 3

Substance: commercially available skeletal muscle PAD
- Western blot staining with antibodies to methylated arginine 3 H4 after PAD treatment: A complete loss of staining with antibodies to this modification was observed following PAD treatment.
